# From patent publication US20040229241A1, “Cloned mammalian polyamine oxidase” (priority 2001, published 2004)
# B1: purified recombinant human PAOh1/SMO (Homo sapiens) (protein)
# chain: MQSCESSGDSADDPLSRGLRRRGQPRVVVIGAGLAGLAAAKALLEQGFTDVTVLEASSHIGGRVQSVKLGHATFELGATWIHGSHGNPIYHLAEANGLLEETTDGERSVGRISLYSKNGVACYLTNHGRRIPKDVVEEFSDLYNEVYNLTQEFFRHDKPVNAESQNSVGVFTREEVRNRIRNDPDDPEATKRLKLAMIQQYLKVESCESSSHSMDEVSLSAFGEWTEIPGAHHIIPSGFMRVVELLAEGIPAHVIQLGKPVRCIHWDQASARPRGPEIEPRGEGDHNHDTGEGGQGGEEPRGGRWDEDEQWSVVVECEDCELIPADHVIVTVSLGVLKRQYTSFFRPGLPTEKVAAIHRLGIGTTDKIFLEFEEPFWGPECNSLQFVWEDEAESHTLTYPPELWYRKICGFDVLYPPERYGHVLSGWICGEEALVMEKCDDEAVAEICTEMLRQFTGNPNIPKPRRILRSAWGSNPYFRGSYSYTQVGSSGADVEKLAKPLPYTESSKTAPMQVLFSGEATHRKYYSTTHGALLSGQREAARLIEMYRDLFQQGT
# B2: human PAOh1 (Homo sapiens) (protein)
# chain: B1 chain
# notes: made in house; host or cells: TnT-coupled wheat germ extract (Promega), template pPAOh1 (pcDNA3.1)
# Assays:
# [1] = substrate: NCCCNCCCCNCCCN; test: cells, lysate or membranes named; conditions: other: named compound as substrate, Lineweaver-Burk; 37.0 °C
# [2] = substrate: NCCCNCCCCNCCCN; test: PAO activity of in vitro TnT (wheat germ) produced PAOh1, fluorescent H2O2 assay; assay type: biochemical, human; conditions: other: Lineweaver/Burke transformation; pH 9.0; 37.0 °C
# Experimental: In Vitro Transcription and Translation. In vitro transcription and translation reactions were performed with the TnT-coupled wheat germ extract system. Parallel reactions were prepared by adding an unlabeled amino acid mixture to one reaction and a [^35S]methionine containing amino acid mixture to the other, according to the supplied protocol. Vector pcDNA3.1 and pPAOh1 were linearized by SalI restriction and served as the templates. The labeled translation reactions products were separated by 10% SDS-PAGE, and radioactivity on the labeled PAO band was determined by Phosphor image analysis using Image Quant software (Molecular Dynamics, Sunnyvale, Calif.).
# Determination of PAO Enzyme Activity. The cultured H157 cells with or without treatment of 10 μM N^1, N″-bis(ethyl)norspermine (BENSpm) were homogenized with a Dounce tissue homogenizer in ice-cold 0.083 M sodium borate buffer (pH 9.0). […] The enzyme activity was stopped by the addition of 2.0 ml of 0.1 M NaOH solution. The fluorescence intensity was measured with excitation at 323 nm and emission at 426 nm. […] Protein content of the cellular homogenate was determined using the Bio-Rad protein assay kit (Bio-Rad). […] For determination of PAO activity in the product of the unlabeled TnT reaction, 10 μl of TnT reaction were used in the place of the homogenate. […]
Protein,Km [1] [µM],Vmax [1] [μmol/mg protein/min],Km [2] [µM]
B1,1.63,7.72,
B2,,,18
